Assay results from IntAct's records for PubMed 36931259.

B1: 14-3-3 protein sigma (Homo sapiens), P31947 (parent)
chain: MERASLIQKAKLAEQAERYEDMAAFMKGAVEKGEELSCEERNLLSVAYKNVVGGQRAAWRVLSSIEQKSNEEGSEEKGPEVREYREKVETELQGVCDTVLGLLDSHLIKEAGDAESRVFYLKMKGDYYRYLAEVATGDDKKRIIDSARSAYQEAMDISKKEMPPTNPIRLGLALNFSVFHYEIANSPEEAISLAKTTFDEAMADLHTLSEDSYKDSTLIMQLLRDNLTLWTADNAGEEGGEAPQEPQS

Variants of: B1
Details: with kkcc1_human CAMKK1, Q8N5S9
kkcc1_human CAMKK1, Q8N5S9, sequence (Q8N5S9 whole entry, looked up): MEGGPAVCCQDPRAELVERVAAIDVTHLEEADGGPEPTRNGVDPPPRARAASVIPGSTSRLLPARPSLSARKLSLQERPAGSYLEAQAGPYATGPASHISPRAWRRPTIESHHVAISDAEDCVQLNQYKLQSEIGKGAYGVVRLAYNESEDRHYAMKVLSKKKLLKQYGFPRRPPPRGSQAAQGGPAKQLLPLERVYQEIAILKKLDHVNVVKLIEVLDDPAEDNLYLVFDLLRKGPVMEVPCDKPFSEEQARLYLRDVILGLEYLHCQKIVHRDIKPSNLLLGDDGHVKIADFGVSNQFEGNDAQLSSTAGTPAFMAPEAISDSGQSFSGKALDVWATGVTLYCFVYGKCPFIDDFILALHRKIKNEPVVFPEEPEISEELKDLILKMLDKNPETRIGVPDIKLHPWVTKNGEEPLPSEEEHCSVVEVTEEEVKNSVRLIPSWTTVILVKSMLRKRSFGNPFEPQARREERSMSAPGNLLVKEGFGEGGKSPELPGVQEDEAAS

Variant	effect of a mutation on the interaction
MERASLIQKAKLAEQAERYEDMAAFMKGAVEKGEELSCEERNLLSVAYENVVGGQEAAWRVLSSIEQKSNEEGSEEKGPEVREYREKVETELQGVCDTVLGLLDSHLIKEAGDAESRVFYLKMKGDYYRYLAEVATGDDKKRIIDSARSAYQEAMDISKKEMPPTNPIRLGLALNFSDFHYEIANSPEEAISLAKTTFDEAMADLHTLSEDSYKDSTLIMQLLRDNLTLWTADNAGEEGGEAPQEPQS [K49E;R56E;V178D]	decreasing interaction strength

Variants of: B1
Details: with tesk1_human TESK1, Q15569
tesk1_human TESK1, Q15569, sequence (Q15569 whole entry, looked up): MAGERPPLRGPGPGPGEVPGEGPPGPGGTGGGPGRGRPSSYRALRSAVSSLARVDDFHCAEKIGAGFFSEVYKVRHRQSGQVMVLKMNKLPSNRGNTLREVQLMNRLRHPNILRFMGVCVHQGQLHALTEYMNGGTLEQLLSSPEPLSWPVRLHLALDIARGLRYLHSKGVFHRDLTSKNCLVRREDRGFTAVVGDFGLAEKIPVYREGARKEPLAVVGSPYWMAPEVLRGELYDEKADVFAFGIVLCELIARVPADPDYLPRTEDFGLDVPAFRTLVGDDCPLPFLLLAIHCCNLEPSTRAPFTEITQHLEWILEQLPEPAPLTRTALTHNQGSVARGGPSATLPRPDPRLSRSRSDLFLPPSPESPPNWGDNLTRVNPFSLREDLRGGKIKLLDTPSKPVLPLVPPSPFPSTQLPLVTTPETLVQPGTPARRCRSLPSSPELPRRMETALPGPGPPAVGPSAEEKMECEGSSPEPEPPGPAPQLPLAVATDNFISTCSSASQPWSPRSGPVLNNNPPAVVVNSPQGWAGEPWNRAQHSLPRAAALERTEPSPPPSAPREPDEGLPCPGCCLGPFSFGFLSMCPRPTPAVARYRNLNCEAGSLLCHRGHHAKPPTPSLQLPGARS

Variant	effect of a mutation on the interaction
MERASLIQKAKLAEQAERYEDMAAFMKGAVEKGEELSCEERNLLSVAYENVVGGQEAAWRVLSSIEQKSNEEGSEEKGPEVREYREKVETELQGVCDTVLGLLDSHLIKEAGDAESRVFYLKMKGDYYRYLAEVATGDDKKRIIDSARSAYQEAMDISKKEMPPTNPIRLGLALNFSDFHYEIANSPEEAISLAKTTFDEAMADLHTLSEDSYKDSTLIMQLLRDNLTLWTADNAGEEGGEAPQEPQS [K49E;R56E;V178D]	decreasing interaction strength

Variants of: B1
Details: with ilk_human ILK

Variant	effect of a mutation on the interaction
MERASLIQKAKLAEQAERYEDMAAFMKGAVEKGEELSCEERNLLSVAYENVVGGQEAAWRVLSSIEQKSNEEGSEEKGPEVREYREKVETELQGVCDTVLGLLDSHLIKEAGDAESRVFYLKMKGDYYRYLAEVATGDDKKRIIDSARSAYQEAMDISKKEMPPTNPIRLGLALNFSDFHYEIANSPEEAISLAKTTFDEAMADLHTLSEDSYKDSTLIMQLLRDNLTLWTADNAGEEGGEAPQEPQS [K49E;R56E;V178D]	decreasing interaction strength

Variants of: B1
Details: with srpk3_human SRPK3, Q9UPE1
srpk3_human SRPK3, Q9UPE1, sequence (Q9UPE1 whole entry): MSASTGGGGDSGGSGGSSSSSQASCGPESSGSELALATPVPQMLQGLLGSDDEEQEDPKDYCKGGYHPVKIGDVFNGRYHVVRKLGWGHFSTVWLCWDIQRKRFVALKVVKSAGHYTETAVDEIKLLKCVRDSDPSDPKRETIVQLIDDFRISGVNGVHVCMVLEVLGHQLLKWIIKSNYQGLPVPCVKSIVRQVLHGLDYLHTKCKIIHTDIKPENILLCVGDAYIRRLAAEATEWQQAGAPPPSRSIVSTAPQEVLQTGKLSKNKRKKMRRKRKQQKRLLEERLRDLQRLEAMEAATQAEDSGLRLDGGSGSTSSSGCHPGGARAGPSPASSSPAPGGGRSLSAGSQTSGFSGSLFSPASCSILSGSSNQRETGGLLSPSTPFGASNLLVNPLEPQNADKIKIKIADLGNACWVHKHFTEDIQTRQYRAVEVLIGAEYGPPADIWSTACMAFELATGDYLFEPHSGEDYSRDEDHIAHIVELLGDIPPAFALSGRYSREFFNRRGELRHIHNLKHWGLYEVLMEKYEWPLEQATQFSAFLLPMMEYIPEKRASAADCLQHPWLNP

Variant	effect of a mutation on the interaction
MERASLIQKAKLAEQAERYEDMAAFMKGAVEKGEELSCEERNLLSVAYENVVGGQEAAWRVLSSIEQKSNEEGSEEKGPEVREYREKVETELQGVCDTVLGLLDSHLIKEAGDAESRVFYLKMKGDYYRYLAEVATGDDKKRIIDSARSAYQEAMDISKKEMPPTNPIRLGLALNFSDFHYEIANSPEEAISLAKTTFDEAMADLHTLSEDSYKDSTLIMQLLRDNLTLWTADNAGEEGGEAPQEPQS [K49E;R56E;V178D]	decreasing interaction strength

Variants of: B1
Details: with btk_human BTK

Variant	effect of a mutation on the interaction
MERASLIQKAKLAEQAERYEDMAAFMKGAVEKGEELSCEERNLLSVAYENVVGGQEAAWRVLSSIEQKSNEEGSEEKGPEVREYREKVETELQGVCDTVLGLLDSHLIKEAGDAESRVFYLKMKGDYYRYLAEVATGDDKKRIIDSARSAYQEAMDISKKEMPPTNPIRLGLALNFSDFHYEIANSPEEAISLAKTTFDEAMADLHTLSEDSYKDSTLIMQLLRDNLTLWTADNAGEEGGEAPQEPQS [K49E;R56E;V178D]	decreasing interaction strength

Variants of: B1
Details: with kpce_human PRKCE

Variant	effect of a mutation on the interaction
MERASLIQKAKLAEQAERYEDMAAFMKGAVEKGEELSCEERNLLSVAYENVVGGQEAAWRVLSSIEQKSNEEGSEEKGPEVREYREKVETELQGVCDTVLGLLDSHLIKEAGDAESRVFYLKMKGDYYRYLAEVATGDDKKRIIDSARSAYQEAMDISKKEMPPTNPIRLGLALNFSDFHYEIANSPEEAISLAKTTFDEAMADLHTLSEDSYKDSTLIMQLLRDNLTLWTADNAGEEGGEAPQEPQS [K49E;R56E;V178D]	decreasing interaction strength

Variants of: B1
Details: with plk2_human PLK2, Q9NYY3
plk2_human PLK2, Q9NYY3, sequence (Q9NYY3 whole entry, looked up): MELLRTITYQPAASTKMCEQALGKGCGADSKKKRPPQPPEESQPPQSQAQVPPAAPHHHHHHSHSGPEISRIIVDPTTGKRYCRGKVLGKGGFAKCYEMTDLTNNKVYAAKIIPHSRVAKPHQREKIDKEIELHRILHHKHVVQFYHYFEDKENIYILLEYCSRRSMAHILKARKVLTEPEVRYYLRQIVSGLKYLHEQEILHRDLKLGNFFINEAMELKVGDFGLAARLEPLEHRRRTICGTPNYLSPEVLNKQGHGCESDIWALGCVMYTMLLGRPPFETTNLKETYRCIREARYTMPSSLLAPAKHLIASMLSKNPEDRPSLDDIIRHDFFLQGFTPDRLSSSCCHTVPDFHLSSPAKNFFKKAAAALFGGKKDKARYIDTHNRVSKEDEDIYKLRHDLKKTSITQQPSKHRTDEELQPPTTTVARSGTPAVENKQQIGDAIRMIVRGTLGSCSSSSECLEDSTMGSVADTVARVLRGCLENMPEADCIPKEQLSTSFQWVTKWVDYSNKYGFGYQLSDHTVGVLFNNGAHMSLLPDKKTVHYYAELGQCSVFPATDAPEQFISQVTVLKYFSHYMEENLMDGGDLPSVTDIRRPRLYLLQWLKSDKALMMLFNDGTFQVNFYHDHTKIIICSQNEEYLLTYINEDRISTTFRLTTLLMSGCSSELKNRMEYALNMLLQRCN

Variant	effect of a mutation on the interaction
MERASLIQKAKLAEQAERYEDMAAFMKGAVEKGEELSCEERNLLSVAYENVVGGQEAAWRVLSSIEQKSNEEGSEEKGPEVREYREKVETELQGVCDTVLGLLDSHLIKEAGDAESRVFYLKMKGDYYRYLAEVATGDDKKRIIDSARSAYQEAMDISKKEMPPTNPIRLGLALNFSDFHYEIANSPEEAISLAKTTFDEAMADLHTLSEDSYKDSTLIMQLLRDNLTLWTADNAGEEGGEAPQEPQS [K49E;R56E;V178D]	decreasing interaction strength

Variants of: B1
Details: with st32c_human STK32C

Variant	effect of a mutation on the interaction
MERASLIQKAKLAEQAERYEDMAAFMKGAVEKGEELSCEERNLLSVAYENVVGGQEAAWRVLSSIEQKSNEEGSEEKGPEVREYREKVETELQGVCDTVLGLLDSHLIKEAGDAESRVFYLKMKGDYYRYLAEVATGDDKKRIIDSARSAYQEAMDISKKEMPPTNPIRLGLALNFSDFHYEIANSPEEAISLAKTTFDEAMADLHTLSEDSYKDSTLIMQLLRDNLTLWTADNAGEEGGEAPQEPQS [K49E;R56E;V178D]	decreasing interaction strength

Variants of: B1
Details: with mylk2_human MYLK2, Q9H1R3

Variant	effect of a mutation on the interaction
MERASLIQKAKLAEQAERYEDMAAFMKGAVEKGEELSCEERNLLSVAYENVVGGQEAAWRVLSSIEQKSNEEGSEEKGPEVREYREKVETELQGVCDTVLGLLDSHLIKEAGDAESRVFYLKMKGDYYRYLAEVATGDDKKRIIDSARSAYQEAMDISKKEMPPTNPIRLGLALNFSDFHYEIANSPEEAISLAKTTFDEAMADLHTLSEDSYKDSTLIMQLLRDNLTLWTADNAGEEGGEAPQEPQS [K49E;R56E;V178D]	decreasing interaction strength

Variants of: B1
Details: with ripk2_human RIPK2, O43353
ripk2_human RIPK2, O43353, sequence (O43353 whole entry): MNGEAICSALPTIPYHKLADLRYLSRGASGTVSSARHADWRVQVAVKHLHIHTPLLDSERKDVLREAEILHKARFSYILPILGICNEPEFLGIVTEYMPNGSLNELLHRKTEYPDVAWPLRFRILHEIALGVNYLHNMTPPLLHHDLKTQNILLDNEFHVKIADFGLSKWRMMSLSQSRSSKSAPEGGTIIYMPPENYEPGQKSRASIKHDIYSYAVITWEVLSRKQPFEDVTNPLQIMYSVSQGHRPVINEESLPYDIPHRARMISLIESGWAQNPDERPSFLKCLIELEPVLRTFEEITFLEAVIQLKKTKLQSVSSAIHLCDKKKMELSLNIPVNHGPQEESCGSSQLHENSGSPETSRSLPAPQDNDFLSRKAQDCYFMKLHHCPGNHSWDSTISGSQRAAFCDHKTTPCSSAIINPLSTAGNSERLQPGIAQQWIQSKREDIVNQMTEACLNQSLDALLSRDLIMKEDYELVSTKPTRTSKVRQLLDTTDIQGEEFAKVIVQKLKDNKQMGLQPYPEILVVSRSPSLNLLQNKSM

Variant	effect of a mutation on the interaction
MERASLIQKAKLAEQAERYEDMAAFMKGAVEKGEELSCEERNLLSVAYENVVGGQEAAWRVLSSIEQKSNEEGSEEKGPEVREYREKVETELQGVCDTVLGLLDSHLIKEAGDAESRVFYLKMKGDYYRYLAEVATGDDKKRIIDSARSAYQEAMDISKKEMPPTNPIRLGLALNFSDFHYEIANSPEEAISLAKTTFDEAMADLHTLSEDSYKDSTLIMQLLRDNLTLWTADNAGEEGGEAPQEPQS [K49E;R56E;V178D]	decreasing interaction strength

Variants of: B1
Details: with m4k4_human MAP4K4, O95819

Variant	effect of a mutation on the interaction
MERASLIQKAKLAEQAERYEDMAAFMKGAVEKGEELSCEERNLLSVAYENVVGGQEAAWRVLSSIEQKSNEEGSEEKGPEVREYREKVETELQGVCDTVLGLLDSHLIKEAGDAESRVFYLKMKGDYYRYLAEVATGDDKKRIIDSARSAYQEAMDISKKEMPPTNPIRLGLALNFSDFHYEIANSPEEAISLAKTTFDEAMADLHTLSEDSYKDSTLIMQLLRDNLTLWTADNAGEEGGEAPQEPQS [K49E;R56E;V178D]	decreasing interaction strength

Variants of: B1
Details: with kc1d_human CSNK1D

Variant	effect of a mutation on the interaction
MERASLIQKAKLAEQAERYEDMAAFMKGAVEKGEELSCEERNLLSVAYENVVGGQEAAWRVLSSIEQKSNEEGSEEKGPEVREYREKVETELQGVCDTVLGLLDSHLIKEAGDAESRVFYLKMKGDYYRYLAEVATGDDKKRIIDSARSAYQEAMDISKKEMPPTNPIRLGLALNFSDFHYEIANSPEEAISLAKTTFDEAMADLHTLSEDSYKDSTLIMQLLRDNLTLWTADNAGEEGGEAPQEPQS [K49E;R56E;V178D]	decreasing interaction strength

Variants of: B1
Details: with ks6a2_human RPS6KA2, Q15349
ks6a2_human RPS6KA2, Q15349, sequence (Q15349 whole entry): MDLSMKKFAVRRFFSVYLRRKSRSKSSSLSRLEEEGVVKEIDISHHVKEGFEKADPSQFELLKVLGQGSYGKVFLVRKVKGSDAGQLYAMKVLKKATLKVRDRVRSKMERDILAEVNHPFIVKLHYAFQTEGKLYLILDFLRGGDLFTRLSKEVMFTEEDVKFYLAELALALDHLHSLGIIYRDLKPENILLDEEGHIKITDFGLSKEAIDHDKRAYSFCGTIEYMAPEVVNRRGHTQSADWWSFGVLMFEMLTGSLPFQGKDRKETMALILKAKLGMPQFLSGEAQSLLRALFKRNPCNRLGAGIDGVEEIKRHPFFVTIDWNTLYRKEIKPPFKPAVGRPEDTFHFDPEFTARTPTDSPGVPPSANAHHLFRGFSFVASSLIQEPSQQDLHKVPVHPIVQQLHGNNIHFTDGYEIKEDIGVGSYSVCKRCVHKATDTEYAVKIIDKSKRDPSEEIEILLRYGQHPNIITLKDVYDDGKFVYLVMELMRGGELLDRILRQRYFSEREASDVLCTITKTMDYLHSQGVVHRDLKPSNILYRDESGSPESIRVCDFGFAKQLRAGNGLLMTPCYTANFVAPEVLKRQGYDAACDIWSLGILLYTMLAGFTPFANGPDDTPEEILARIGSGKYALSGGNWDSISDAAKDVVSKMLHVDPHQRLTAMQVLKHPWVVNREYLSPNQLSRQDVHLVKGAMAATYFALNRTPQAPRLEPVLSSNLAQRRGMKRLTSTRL

Variant	effect of a mutation on the interaction
MERASLIQKAKLAEQAERYEDMAAFMKGAVEKGEELSCEERNLLSVAYENVVGGQEAAWRVLSSIEQKSNEEGSEEKGPEVREYREKVETELQGVCDTVLGLLDSHLIKEAGDAESRVFYLKMKGDYYRYLAEVATGDDKKRIIDSARSAYQEAMDISKKEMPPTNPIRLGLALNFSDFHYEIANSPEEAISLAKTTFDEAMADLHTLSEDSYKDSTLIMQLLRDNLTLWTADNAGEEGGEAPQEPQS [K49E;R56E;V178D]	decreasing interaction strength

Variants of: B1
Details: with alpk1_human ALPK1, Q96QP1
alpk1_human ALPK1, Q96QP1, sequence (Q96QP1 whole entry): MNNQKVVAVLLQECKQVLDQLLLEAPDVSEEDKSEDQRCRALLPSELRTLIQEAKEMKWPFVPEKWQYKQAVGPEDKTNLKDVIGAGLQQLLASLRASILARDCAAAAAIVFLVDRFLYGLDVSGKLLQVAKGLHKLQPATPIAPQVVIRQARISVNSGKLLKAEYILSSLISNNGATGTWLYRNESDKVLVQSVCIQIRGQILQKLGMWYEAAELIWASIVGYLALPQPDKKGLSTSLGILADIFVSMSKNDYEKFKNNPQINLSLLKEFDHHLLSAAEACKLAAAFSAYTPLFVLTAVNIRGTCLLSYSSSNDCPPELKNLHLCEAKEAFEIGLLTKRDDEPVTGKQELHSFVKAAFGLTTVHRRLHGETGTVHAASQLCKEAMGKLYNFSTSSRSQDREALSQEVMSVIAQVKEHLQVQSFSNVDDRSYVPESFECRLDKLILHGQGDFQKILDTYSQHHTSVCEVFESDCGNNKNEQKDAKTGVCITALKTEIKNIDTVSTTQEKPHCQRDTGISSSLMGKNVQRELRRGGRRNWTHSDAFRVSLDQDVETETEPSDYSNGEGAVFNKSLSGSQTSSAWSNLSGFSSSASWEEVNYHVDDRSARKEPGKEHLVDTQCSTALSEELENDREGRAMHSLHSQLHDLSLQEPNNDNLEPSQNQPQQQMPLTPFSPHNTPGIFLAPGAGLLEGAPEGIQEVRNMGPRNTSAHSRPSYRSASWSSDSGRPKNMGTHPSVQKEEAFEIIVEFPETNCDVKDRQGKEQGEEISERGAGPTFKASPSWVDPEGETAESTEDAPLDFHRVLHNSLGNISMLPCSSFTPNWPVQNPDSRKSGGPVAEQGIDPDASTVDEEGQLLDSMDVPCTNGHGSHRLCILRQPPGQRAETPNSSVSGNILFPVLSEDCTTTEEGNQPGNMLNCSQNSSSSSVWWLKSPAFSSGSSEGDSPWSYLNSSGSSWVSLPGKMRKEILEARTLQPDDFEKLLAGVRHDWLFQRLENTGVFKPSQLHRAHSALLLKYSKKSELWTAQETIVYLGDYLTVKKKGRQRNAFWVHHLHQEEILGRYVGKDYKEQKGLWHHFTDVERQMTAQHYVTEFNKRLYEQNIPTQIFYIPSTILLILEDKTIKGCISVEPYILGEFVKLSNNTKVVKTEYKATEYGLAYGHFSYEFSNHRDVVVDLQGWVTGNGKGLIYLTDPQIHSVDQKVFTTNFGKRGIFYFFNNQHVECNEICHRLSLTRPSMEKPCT

Variant	effect of a mutation on the interaction
MERASLIQKAKLAEQAERYEDMAAFMKGAVEKGEELSCEERNLLSVAYENVVGGQEAAWRVLSSIEQKSNEEGSEEKGPEVREYREKVETELQGVCDTVLGLLDSHLIKEAGDAESRVFYLKMKGDYYRYLAEVATGDDKKRIIDSARSAYQEAMDISKKEMPPTNPIRLGLALNFSDFHYEIANSPEEAISLAKTTFDEAMADLHTLSEDSYKDSTLIMQLLRDNLTLWTADNAGEEGGEAPQEPQS [K49E;R56E;V178D]	decreasing interaction strength

Variants of: B1
Details: with kc1e_human CSNK1E

Variant	effect of a mutation on the interaction
MERASLIQKAKLAEQAERYEDMAAFMKGAVEKGEELSCEERNLLSVAYENVVGGQEAAWRVLSSIEQKSNEEGSEEKGPEVREYREKVETELQGVCDTVLGLLDSHLIKEAGDAESRVFYLKMKGDYYRYLAEVATGDDKKRIIDSARSAYQEAMDISKKEMPPTNPIRLGLALNFSDFHYEIANSPEEAISLAKTTFDEAMADLHTLSEDSYKDSTLIMQLLRDNLTLWTADNAGEEGGEAPQEPQS [K49E;R56E;V178D]	decreasing interaction strength
